In publication doi:10.1101/2021.08.12.455998:

Legend:
[1] = molecular target: empty disulfide-stabilized HLA-A*02:01 molecule (HLA-A*02:01(Y84C/A139C) heavy chain with beta-2 microglobulin) (human); assay: native MS
[2] = molecular target: empty disulfide-stabilized HLA-A*02:01 molecule (HLA-A*02:01(Y84C/A139C) heavy chain with beta-2 microglobulin) (human); assay: nDSF thermal shift

| Binder | Kd [1] | ΔTm [2] | percent of dsA2 as dsA2/pep (AUC) at 10 V [1] | stoichiometry N [1] |
| --- | --- | --- | --- | --- |
| NLVPMVAT [NT8] | 30 µM |  |  |  |
| LVPMVATV [LV8] | 0.07 µM | 11.6 K |  |  |
| GLGGGGGGV [GV9] |  | 6.4 K | 43% |  |
| MVATV [MV5] |  |  |  | 2 |
